According to patent US20260241049A1, “Radiopharmaceutical Compositions Targeting Glypican-3 and Uses Thereof” (RayzeBio, Inc., priority 2023, published 2026):
Blank lines part the entries; values can stand above or below the binder they belong to. Starred links: 1 amine or outer side, 2 acyl side, 3 side chain; linkers in the order of their positions; H or OH if unused. Positions of bridges follow the written chain, without caps; N, C: chain ends. Non-standard residues stand in square brackets, D forms with d. Primed or numbered codes have the meaning given here. *: point of attachment. YaeCOpipzaa = 2-amino-3-(4-(2-(4-(carboxymethyl)piperazine-1-carboxamido)ethoxy)phenyl)propanoic acid, O=C(NCCOc1ccc(C[C@H](N[*:1])C(=O)[*:2])cc1)N1CCN(CC(=O)[*:3])CC1; DOTA‑Lu = DOTA-lutetium(175) amide on the side-chain amine, O=C([O-])CN1CCN(CC(=O)[O-])CCN(CC(=O)*)CCN(CC(=O)[O-])CC1.[175Lu+3]; Thr(Me) = O-methyl threonine, (3R)-2-amino-3-methoxybutanoic acid, CO[C@H](C)[C@H](N[*:1])C(=O)[*:2]; F4aao = 4-(carboxymethoxy)-L-phenylalanine, O=C([C@H](Cc1ccc(OCC(=O)[*:3])cc1)N[*:1])[*:2]; F4aao(4) = 4-(carboxymethoxy)phenylalanine, O=C([C@H](Cc1ccc(OCC(=O)[*:3])cc1)N[*:1])[*:2]; MeHseMe = N-methyl-O-methyl-L-homoserine, COCC[C@@H](C(=O)[*:2])N(C)[*:1]; Thr(Me)(3) = TMe, O-methyl-L-threonine, CO[C@H](C)[C@H](N[*:1])C(=O)[*:2]; Phe(4-(1-Me-pyrazol-4-yl)) = Cn1cc(-c2ccc(C[C@H](N)C(=O)O)cc2)cn1; TMe = O-methyl-L-threonine, CO[C@H](C)[C@H](N[*:1])C(=O)[*:2]; NMeAla(isoquinolin-7-yl) = CN[C@@H](Cc1ccc2ccncc2c1)C(=O)O; Phe(4-CH2COOH) = N[C@@H](Cc1ccc(CC(=O)O)cc1)C(=O)O; 3Pal(6-Ph) = N[C@@H](Cc1ccc(-c2ccccc2)nc1)C(=O)O; Phe(4-COOH) = N[C@@H](Cc1ccc(C(=O)O)cc1)C(=O)O; NMe2Nal = CN[C@@H](Cc1ccc2ccccc2c1)C(=O)O; NMeI = CC[C@H](C)[C@H](NC)C(=O)O; NMeQ = CN[C@@H](CCC(N)=O)C(=O)O; NMeK = CN[C@@H](CCCCN)C(=O)O; NMeC = CN[C@@H](CS)C(=O)O

Assays:
[1] = biological target: T1, Human Glypican3-Fc (ACRO Biosystems, GP3-H5258) (human, UniProt P51654 25-559); assay: SPR (Biacore T200), Method B-2: human Glypican3-Fc captured by anti-human Fc on CM3 chip, peptide as analyte
T1 construct: Bought fusion protein, captured in Methods B-2, B-3 and B-4; Catalogue number is printed only in Method B-2; not shown: Fc part of the bought fusion
Description: A CM3 sensor chip (Cytiva) was inserted into a Biacore T200 (Cytiva), primed three times with a running buffer: HBS-P-+, pH 7.4 (Cytiva), and equilibrated at a flow rate of 30 μL/min. Using the Anti-Fc Capture Kit (Cytiva), 50 LL each of 60 mM EDC solution (Cytiva) and 650 mM NHS solution (Cytiva) were mixed, and then reacted at a flow rate of 10 μL/min for 420 seconds, 150 μL of […] Anti-human IgG (Fc) Antibody solution was prepared by diluting with 10 mM acetic acid solution (pH 5.0), reacted at a flow rate of 10 μL/min for 420 seconds, and immobilized on a CM3 sensor chip. After immobilization, 1.0 M ethanolamine aqueous solution (Cytiva) was allowed to react for 420 seconds at a flow rate of 10 μL/min for capping. Human Glypican3-Fc (ACRO Biosystems, GP3-H5258) was allowed to react for 60 seconds at a flow rate of 10 μL/min. After capturing human Glypican3-Fc, a peptide solution prepared to 10 mM in DMSO solution was diluted with a running buffer to a final concentration of 10 μM. […] Using the above samples, peptide kinetics for Glypican3 was obtained by SPR measurement. Kinetics evaluation of Glypican3 was performed by SPR measurements at a flow rate of 10 μL/min. setting the association time to 120 seconds and the disassociation time to 600 seconds.
(§1) The obtained data by Method B-1, Method B-2, Method B-3 and Method B-4 were analyzed by follow. Single Cycle Kinetics was used as the kinetics evaluation model, and curve fitting was performed using Biacore T200 Evaluation Software Version 3.0 (Cytiva).

[2] = biological target: T2, human Glypican3 (R&D systems, catalog number: 2119-GP) (human, UniProt P51654 25-559, limits assumed); assay: SPR (Biacore T200), Method B-1: human Glypican3 amine-coupled to CM3 chip, peptide as analyte
T2 construct: Bought recombinant protein, amine-coupled to the chip in Method B-1; also called GPC3; hGPC3
Description: A CM3 sensor chip (Cytiva) was inserted into a Biacore T200 (Cytiva), primed three times with a running buffer: HBS-P+, pH 7.4 (Cytiva), and equilibrated at a flow rate of 30 μL/min. Ligand immobilization was performed at a flow rate of 10 μL/min. 50 μL each of 60 mM EDC solution (Cytiva) and 650 mM NHS solution (Cytiva) were mixed, and then reacted at a flow rate of 10 μL/min for 420 seconds, 150 μL of 0.2 μM human Glypican3 (R&D systems, catalog number: 2119-GP) solution which was prepared by diluting with 10 mM acetic acid solution (pH 5.0), was reacted at a flow rate of 10 μL/min for 420 seconds, and Glypican3 was immobilized on the CM3 sensor chip. After immobilization, 1.0 M ethanolamine aqueous solution (Cytiva) was allowed to react for 420 seconds at a flow rate of 10 μL/min for capping. A peptide lysate prepared to 10 mM in DMSO solution was diluted with running buffer to a final concentration of 10 μM peptide lysate. […] Using the above samples, peptide kinetics for Glypican3 was obtained by SPR measurement. Kinetics evaluation of Glypican3 was performed by SPR measurements at a flow rate of 10 μL/min, setting the association time to 120 seconds and the disassociation time to 600 seconds.
as §1

B2: Macrocyclic peptide of Example 2-19 (SEQ ID No. 37) (peptide)
peptide: {CH2CO}-[NMeQ][MeHseMe]D[NMeQ][Phe(4-COOH)][Thr(Me)]I[YaeCOpipzaa][NMe2Nal]G[3Pal(6-Ph)][NMeC]-NH2
modifications: thioether N-12
SMILES: CC[C@H](C)[C@@H]1NC(=O)[C@H]([C@@H](C)OC)NC(=O)[C@H](Cc2ccc(C(=O)O)cc2)NC(=O)[C@H](CCC(N)=O)N(C)C(=O)[C@H](CC(=O)O)NC(=O)[C@H](CCOC)N(C)C(=O)[C@H](CCC(N)=O)N(C)C(=O)CSC[C@@H](C(N)=O)N(C)C(=O)[C@H](Cc2ccc(-c3ccccc3)nc2)NC(=O)CNC(=O)[C@H](Cc2ccc3ccccc3c2)N(C)C(=O)[C@H](Cc2ccc(OCCNC(=O)N3CCN(CC(=O)O)CC3)cc2)NC1=O
Kd [1]: 0.5 nM

B4: Macrocyclic peptide of Example 2-17 (SEQ ID No. 20) (peptide)
peptide: {CH2CO}-[NMeQ][NMeQ]D[NMeQ][Phe(4-COOH)]II[F4aao][NMe2Nal]G[Phe(4-(1-Me-pyrazol-4-yl))][NMeC]-NH2
modifications: thioether N-12
SMILES: CC[C@H](C)[C@@H]1NC(=O)[C@H](Cc2ccc(C(=O)O)cc2)NC(=O)[C@H](CCC(N)=O)N(C)C(=O)[C@H](CC(=O)O)NC(=O)[C@H](CCC(N)=O)N(C)C(=O)[C@H](CCC(N)=O)N(C)C(=O)CSC[C@@H](C(N)=O)N(C)C(=O)[C@H](Cc2ccc(-c3cnn(C)c3)cc2)NC(=O)CNC(=O)[C@H](Cc2ccc3ccccc3c2)N(C)C(=O)[C@H](Cc2ccc(OCC(=O)O)cc2)NC(=O)[C@H]([C@@H](C)CC)NC1=O
Kd [2]: 1.9 nM

B6: Macrocyclic peptide of Example 2-18 (SEQ ID No. 36) (peptide)
peptide: {CH2CO}-[NMeQ][MeHseMe]D[NMeQ][Phe(4-COOH)][Thr(Me)(3)]I[F4aao][NMeAla(isoquinolin-7-yl)]G[Phe(4-(1-Me-pyrazol-4-yl))][NMeC]-NH2
modifications: thioether N-12
SMILES: CC[C@H](C)[C@@H]1NC(=O)[C@H]([C@@H](C)OC)NC(=O)[C@H](Cc2ccc(C(=O)O)cc2)NC(=O)[C@H](CCC(N)=O)N(C)C(=O)[C@H](CC(=O)O)NC(=O)[C@H](CCOC)N(C)C(=O)[C@H](CCC(N)=O)N(C)C(=O)CSC[C@@H](C(N)=O)N(C)C(=O)[C@H](Cc2ccc(-c3cnn(C)c3)cc2)NC(=O)CNC(=O)[C@H](Cc2ccc3ccncc3c2)N(C)C(=O)[C@H](Cc2ccc(OCC(=O)O)cc2)NC1=O
Kd [1]: 3.8 nM

B7: Macrocyclic peptide of Example 2-14 (SEQ ID No. 17) (peptide)
peptide: {CH2CO}-[NMeQ][NMeQ]D[NMeQ][F4aao(4)]II[Phe(4-COOH)][NMe2Nal]G[Phe(4-(1-Me-pyrazol-4-yl))][NMeC]-NH2
modifications: thioether N-12
SMILES: CC[C@H](C)[C@@H]1NC(=O)[C@H](Cc2ccc(OCC(=O)O)cc2)NC(=O)[C@H](CCC(N)=O)N(C)C(=O)[C@H](CC(=O)O)NC(=O)[C@H](CCC(N)=O)N(C)C(=O)[C@H](CCC(N)=O)N(C)C(=O)CSC[C@@H](C(N)=O)N(C)C(=O)[C@H](Cc2ccc(-c3cnn(C)c3)cc2)NC(=O)CNC(=O)[C@H](Cc2ccc3ccccc3c2)N(C)C(=O)[C@H](Cc2ccc(C(=O)O)cc2)NC(=O)[C@H]([C@@H](C)CC)NC1=O
Kd [2]: 4.8 nM

More lines, now with the values ahead:

Kd [1]: 0.67 nM
B1: Lu-C-42 (peptide)
peptide: {CH2CO}-K[NMeI]D[NMeQ][Phe(4-COOH)]II[F4aao][NMeAla(isoquinolin-7-yl)]G[3Pal(6-Ph)][NMeC]-NH2
modifications: thioether N-12; not fully specified (residue 1); also: DOTA-Lu: cold Lu-175 complex

Kd [1]: 7.05 nM
B3: Lu-C-31 (peptide)
peptide: Ac-[NMeK](DOTA‑Lu)[NMeI]D[NMeQ][Phe(4-COOH)][TMe]I[F4aao][NMeAla(isoquinolin-7-yl)]G[3Pal(6-Ph)][NMeC][dE]-NH2
modifications: bridge N-12; not fully specified (bridges); printed as MeK(DOTA-Lu)-MeI-D-MeQ-F4COO-TMe-I-F4aao-MeNal27N-G-3Py6Ph-MeC-de-NH2

Kd [2]: 3.5 nM
B5: Macrocyclic peptide of Example 2-16 (SEQ ID No. 19) (peptide)
peptide: {CH2CO}-[NMeQ][NMeQ]D[NMeQ][Phe(4-COOH)]II[Phe(4-CH2COOH)][NMe2Nal]G[Phe(4-(1-Me-pyrazol-4-yl))][NMeC]-NH2
modifications: thioether N-12
SMILES: CC[C@H](C)[C@@H]1NC(=O)[C@H](Cc2ccc(C(=O)O)cc2)NC(=O)[C@H](CCC(N)=O)N(C)C(=O)[C@H](CC(=O)O)NC(=O)[C@H](CCC(N)=O)N(C)C(=O)[C@H](CCC(N)=O)N(C)C(=O)CSC[C@@H](C(N)=O)N(C)C(=O)[C@H](Cc2ccc(-c3cnn(C)c3)cc2)NC(=O)CNC(=O)[C@H](Cc2ccc3ccccc3c2)N(C)C(=O)[C@H](Cc2ccc(CC(=O)O)cc2)NC(=O)[C@H]([C@@H](C)CC)NC1=O
